Measured values published in paper PMC12474881.
Blank lines part the entries; values can stand above or below the substance they belong to.

Experiments:
[1] = target: CaMKIIδ-0 F368A (human); assay: mass photometry
[2] = target: CaMKIIα with exon 14 only as the variable linker (human)
[3] = target: CaMKIIα with exon 18 only as the variable linker (human)
[4] = target: CaMKIIβ with exon 14 only as the variable linker (human)
[5] = target: CaMKIIδ with exon 14 only as the variable linker (human)
[6] = target: CaMKIIα exon 18 with all Ser and Thr residues in exon 18 mutated to Ala (human)
[7] = target: CaMKIIα mutants with acidic exon 18 positioned proximal to the regulatory segment
[8] = target: CaMKIIα with acidic exon 14 (all basic residues of exon 14 mutated to acidic residues) (human)
[9] = target: CaMKIIα with basified exon 18 (human)
[10] = target: CaMKIIα with the sequence of exon 18 reversed (human)
[11] = target: CaMKIIδ-0 F368A/L405M (human); assay: mass photometry
[12] = target: CaMKIIδ-0 F368A/Q407A (human); assay: mass photometry

- percent of the total population as dimers at 25 nM [1]: 20%
- percent of the total population as dimers at 100 nM [1]: 10%
- percent of the total population as tetramers at 100 nM [1]: 5%
- stoichiometry N [1]: 14
Substance: CaMKIIδ-0 F368A (enzyme)

- EC50 of Ca2+/CaM for kinase activity against syntide-2 (coupled kinase assay) [2]: 17 nM
- EC50 of Ca2+/CaM for kinase activity against syntide-2 (coupled kinase assay) [3]: 193 nM
- EC50 of Ca2+/CaM for kinase activity against syntide-2 (coupled kinase assay) [4]: 20 nM
- EC50 of Ca2+/CaM for kinase activity against syntide-2 (coupled kinase assay) [5]: 20 nM
- EC50 of Ca2+/CaM for kinase activity (coupled kinase assay) [6]: 350 nM
- EC50 of Ca2+/CaM for kinase activity (coupled kinase assay) [7]: 70 nM
- EC50 of Ca2+/CaM for kinase activity against syntide-2 (coupled kinase assay) [8]: 102 nM
- EC50 of Ca2+/CaM for kinase activity against syntide-2 (coupled kinase assay) [9]: 34 nM
- EC50 of Ca2+/CaM for kinase activity against syntide-2 (coupled kinase assay) [10]: 41 nM
Substance: Calmodulin (Gallus gallus) (from UniProt P62149 1-149) (natural protein)

- percent of the population as tetradecameric holoenzyme at 100 nM [11]: 5%
- stoichiometry N [11]: 2
Substance: CaMKIIδ-0 F368A/L405M (enzyme)

- percent of the population as tetradecameric holoenzyme at 100 nM [12]: 5%
- stoichiometry N [12]: 2
Substance: CaMKIIδ-0 F368A/Q407A (enzyme)
